# From patent US20100003727
# B1: lipoyl transferase (LipB protein) of C. jeikeium (protein)
# chain: MGFQQGSIRKANMGTTGTNDGATTPPANTSTPAVDIDVRDLGTVDYEDTWHLQANLAAQRAEEKIPDTILLLQHPPTYTAGKRTQDSDRPTNGLPVVDVDRGGRITWHGPGQLVAYPIIKLADPVDVVDYVRRLEQALIQTCEDLGLHGTGRVEGRSGVWLPAGVINGELKPARKIAAIGIRVTRGVTMHGVALNCDNTMEYYDHIVPCGLADAGVTTLTEELGRDVSVSDAYSSLAHNLVDALNGDLPVHS
# Biological target: T1, lipoamide-containing aminomethyl transferase (GcvH, H-protein) of C. jeikeium
# T1 chain: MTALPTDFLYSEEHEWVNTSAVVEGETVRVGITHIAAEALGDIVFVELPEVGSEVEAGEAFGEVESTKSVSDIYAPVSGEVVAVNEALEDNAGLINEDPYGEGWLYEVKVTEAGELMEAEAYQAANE
protein,measurement,value
B1,"growth of serine-auxotrophic C. glutamicum OM264C transformants (pOM620AF, pOM621AR) on minimal glycine plates without serine and without lipoic acid","both transformants grew, while OM264C(pCLIK) did not"
